Source: patent US12214021B2 (CHINA AGRICULTURAL UNIVERSITY, priority 2018, dated 2025)
Marks after values point to notes of the source that are not given here.

Columns and labels:
VDR [1] = assay: Western blot detection of VDR expression in kidney, colon and bone tissue; assay type: in vivo, mice
Excerpt: The inventors further verified the expression of VDR in three major tissues, kidney, colon and bone using the Western blot method by extracting the tissue protein.

[2] = micro-CT microstructure of trabecular bone of distal femur of mice; assay type: in vivo; details: for BV/TV / TPF / Tb · N / Tb · Sp / Tb · Th: femoral ROI, Mean ± SD, n = 8
Excerpt: According to the micro-building theory, the strength of the trabecular bone depends not only on the BMD, but also on its three-dimensional structure. In pathology, bone damage should include both “quantitative” change and “qualitative” changes. Quantitative change is the decline of BMD, while qualitative change is the change of the microstructure of trabecular bone, such as trabecular number and thickness, trabecular connection, and so on. Trabecular bone plays a major role in the microstructure. Increasing the cross structure of each trabecular bone can increase the supporting strength of the bone, but has basically no effect on bone mineral density.
The distal femur is considered a sensitive site for detecting bone health due to high cancellous bone content and rapid bone turnover. Therefore, the inventors analyzed the microstructure of trabecular bone of the distal femur using micro-CT. […] Therefore, this study mainly analyzed the microstructure of the cancellous trabecular bone of the femur in each group. The three-dimensional structure image of the trabecular bone of the ROI region of the mouse femur obtained by micro-CT reconstruction is shown in FIG. 7A and the longitudinal section is shown in FIG. 7B.
In order to quantitatively analyze the structure of the trabecular bone, the spatial structure parameters of the trabecular bone of the ROI region shown in FIG. 7 were also measured. Trabecular bone structure parameters include the followings: Bone Volume Fraction (BV/TV), which is the ratio of the total volume of voxels representing the bone structure in the ROI to the total volume of all voxels in the region, and when the bone is unhealthy, the trabecular bone is lost and the BV/TV value decreases; trabecular thickness (Tb·Th), which is the average thickness of trabecular bone, and when the bone is unhealthy, the value of Tb·Th decreases, and in porous materials, Tb·Th can be understood as thickness of the pore wall; trabecular number (Tb·N), which is the number of intersections of bone tissue and non-bone tissue within a given length, and when the bone is unhealthy, the value of Tb·N decreases; trabecular separation (Tb·Sp), which is the average width of the medullary cavity between the trabecular bones. An increase in Tb·Sp indicates an increased bone resorption and possible bone loss. Tb. Sp can be understood as porosity. The trabecular pattern factor is used to evaluate the morphology of the trabecular bone. This parameter is determined by the surface area and volume of the trabecular bone, and is a parameter obtained through 3D simulation. The smaller the TPF value, the better the connectivity between trabecular bones. BV/TV, Tb·Th, Tb·N, and Tb·Sp are parameters that can be provided by both micro-CT and bone tissue morphometry. The TPF value is a parameter based on the analysis of the three-dimensional structure of the trabecular bone, can be obtained from micro-CT analysis, but cannot be provided by the traditional two-dimensional method.

osteoblasts = assay: proliferation of osteoblasts promoted by LF (MTT method); assay type: cell-based; details: FIG. 4
Procedure: Based on transcriptome data, the inventors verified that LF can promote the high expression of VDR at both the gene and protein levels. In order to confirm the role of this pathway in the promotion of osteoblast proliferation and differentiation by LF, the inventors first designed a VDR siRNA to achieve the purpose of transiently silencing VDR genes. The principle of siRNA is the post-transcriptional gene silencing mechanism that blocks the expression of corresponding gene. 20 μM VDR siRNA was added to osteoblasts, the proliferation rate of osteoblasts promoted by LF was detected by MTT method, and the ALP activity of osteoblasts promoted by LF was detected by enzyme-linked immunoassay.
The inventors first confirmed that LF promotes the proliferation and differentiation of osteoblasts through the regulation of the VDR pathway using the osteoblast model. Since the osteogenic effect of VDR is mainly achieved by vitamin D, in order to simulate the normal physiological environment, the inventors treated osteoblasts with both 1 nM of […] (the active form of vitamin D) and LF, and then studied the proliferation and differentiation of osteoblasts.

VDR [3] = assay: VDR protein expression in cytoplasm and nucleus of osteoblasts after LF for different times; assay type: cell-based
Procedure: After verifying that LF promotes high expression of VDR at the transcription level, it is further verified at the protein level. VDR exists in the cytoplasm and nucleus, but plays a major role in the nucleus. The inventors stimulated osteoblasts for different times using LF to measure the expression of VDR in the cytoplasm and nucleus. […] In the nucleus, VDR expression began to increase at 1 hour after LF treatment, and reaches the maximum at 2-6 h.

VDR [4] = assay: effect of inhibition of endocytosis (hypertonic, 4° C.) on VDR expression promoted by LF in MC3T3-E1 cells; assay type: cell-based; details: under the condition of inhibiting endocytosis (hypertonic, 4° C.), FIG. 18
Procedure: Studies have shown that LF can directly enter the cell and bind with DNA to regulate cell gene expression. Therefore, in order to study the effect of endocytosis, cells were stimulated with LF under culture conditions that inhibit endocytosis, and the inhibitory effect on the endocytosis of LF were detected firstly. […] Then, the promotion effect of LF on VDR was measured to analyze whether the inhibition of endocytosis affected the expression of VDR promoted by LF to determine the site of action of LF.

VDR [5] = assay: expression of VDR gene (mRNA) in MC3T3-E1 cells under LF stimulation; assay type: cell-based; details: FIG. 1
[6] = blood biochemical markers in mice after oral LF; assay type: in vivo; details: for 25-OH VD3 / Ca / P / PTH: blood, Mean ± SD, n = 8
Excerpt: Generally, the content of VD is reflected by measuring the content of 25-OH D3 in the serum. […] The contents of calcium and phosphorus in serum reflect the degree of absorption of calcium and phosphorus in the small intestine. […] However, oral administration of LF still has no effect on serum calcium and phosphorus content.

[7] = bone mineral density of the femur of mice; assay type: in vivo
Excerpt: The factors affecting bone mineral density mainly include bone mass factors and bone quality factors. Decreased bone mass is an important factor in the occurrence of common bone diseases, and bone mineral density (BMD) is an important indicator for quantifying bone mass in bone mineral metabolism. The BMD index is of great significance for the prediction of fracture risk, the early diagnosis of osteoporosis and the evaluation of intervention measures.

[8] = contents of calcium and phosphorus in urine of mice; assay type: in vivo; details: LF1000 group
Procedure: In order to reflect the reabsorption of calcium and phosphorus by the kidney, the contents of calcium and phosphorus in urine were measured. In the VD-deficient groups, the calcium content in the LF1000 group is reduced by 67% compared with the control group, and the phosphorus content in the LF1000 group is reduced by 72% compared with the control group; in the VD-normal groups, the calcium content in the LF1000 group is reduced by 80% compared with the control group, and the phosphorus content in the LF1000 group is reduced by 78% compared with the control group.

VDR [9] = assay: immunohistochemistry of VDR expression in mouse kidney, colon and bone tissue; assay type: in vivo, mice; details: for VDR-positive cell rate in the kidney: FIG. 9; for VDR positive cell rate in the colon (positive cells to total cells in each crypt): FIG. 11
Excerpt: The immunohistochemical technique was used to detect the expression of VDR in kidney tissues.

[10] = VD-normal oral-administered LF group
[11] = VD-deficient LF100-administered group as printed (second such column, c3)
[12] = VD-normal LF100-administered group as printed (second such column, c6)
[13] = osteoblasts, after LF treatment

B1: lactoferrin (protein, UniProt P02788 20-710, looked up)
Lactotransferrin: GRRRSVQWCAVSQPEATKCFQWQRNMRKVRGPPVSCIKRDSPIQCIQAIAENRADAVTLDGGFIYEAGLAPYKLRPVAAEVYGTERQPRTHYYAVAVVKKGGSFQLNELQGLKSCHTGLRRTAGWNVPIGTLRPFLNWTGPPEPIEAAVARFFSASCVPGADKGQFPNLCRLCAGTGENKCAFSSQEPYFSYSGAFKCLRDGAGDVAFIRESTVFEDLSDEAERDEYELLCPDNTRKPVDKFKDCHLARVPSHAVVARSVNGKEDAIWNLLRQAQEKFGKDKSPKFQLFGSPSGQKDLLFKDSAIGFSRVPPRIDSGLYLGSGYFTAIQNLRKSEEEVAARRARVVWCAVGEQELRKCNQWSGLSEGSVTCSSASTTEDCIALVLKGEADAMSLDGGYVYTAGKCGLVPVLAENYKSQQSSDPDPNCVDRPVEGYLAVAVVRRSDTSLTWNSVKGKKSCHTAVDRTAGWNIPMGLLFNQTGSCKFDEYFSQSCAPGSDPRSNLCALCIGDEQGENKCVPNSNERYYGYTGAFRCLAENAGDVAFVKDVTVLQNTDGNNNEAWAKDLKLADFALLCLDGKRKPVTEARSCHLAMAPNHAVVSRMDKVERLKQVLLHQQAKFGRNGSDCPDKFCLFQSETKNLLFNDNTECLARLHGKTTYEKYLGPQYVAGITNLKKCSTSPLLEACEFLRK
notes: natural glycoprotein with a molecular weight of 78 KDa in milk
VDR expression in the colon (VDR [1]; FIG. 15): effectively promote the expression of VDR
VDR expression in the femur, higher than that of the control group (VDR [1]; VD deficiency, LF1000-administered group, FIG. 16): 3 times
VDR expression in the kidney (VDR [1]; VD deficiency, oral lactoferrin, FIG. 14): effectively promote the expression of VDR
VDR expression in the femur, higher than that of the VD normal control group (VDR [1]; VD-normal oral-administered 100 mg LF/kg BW group, FIG. 16): 2.35 times
trabecular bones and cavity in longitudinal section compared with the control group ([2]; VD-deficient LF-administered group, FIG. 7): obviously more trabecular bones and smaller cavity
BV/TV of the trabecular bone compared with the VD-deficient control group and the VD-normal control group ([2]; VD-deficient groups, low-dose LF group): significantly higher
trabecular structure parameters compared with the control group [2, 10]: comparable to the control group, except for Tb·Th value
BV/TV [2, 11]: 0.252 ± 0.029^b %
TPF [2, 11]: 7.290 ± 2.128^ab mm^−1
Tb · N [2, 11]: 5.374 ± 0.501^ab mm^−1
Tb · Sp [2, 11]: 0.136 ± 0.017^b mm
Tb · Th [2, 11]: 0.054 ± 0.005^ab mm
BV/TV [2, 12]: 0.28 ± 0.017^ab %
TPF [2, 12]: 5.599 ± 0.397^b mm^−1
Tb · N [2, 12]: 6.029 ± 0.586^a mm^−1
Tb · Sp [2, 12]: 0.141 ± 0.020^b mm
Tb · Th [2, 12]: 0.057 ± 0.004^ab mm
effect on promoting the proliferation and differentiation of osteoblasts, compared with 1.25(OH)2D3 (osteoblasts): stronger effect
time after which VDR expression in the cytoplasm began to normalize (VDR [3]; osteoblasts treated with LF): 12 h
time at which VDR expression in the cytoplasm reaches the maximum (VDR [3]; osteoblasts treated with LF): 4 h
VDR expression in the cytoplasm (VDR [3]; osteoblasts treated with LF for two hours): significantly increased
time at which VDR expression in the nucleus began to increase (VDR [3]; [13]): 1 h
time at which VDR expression in the nucleus reaches the maximum (VDR [3]; [13]): 2 to 6 h
promotion effect of LF on the expression of VDR in the cytoplasm and nucleus (VDR [4]): significantly inhibited
VDR expression at mRNA levels (VDR [5]): up to 30 fold
25-OH VD3 [6, 11]: 14.8 ± 2.39^a ng/mL
Ca [6, 11]: 1.6 ± 0.13^a mmol/L
P [6, 11]: 2.33 ± 0.42^a mmol/L
PTH [6, 11]: 93.69 ± 34.61^b pg/mL
25-OH VD3 [6, 12]: 27.61 ± 2.93^b ng/mL
Ca [6, 12]: 2.25 ± 0.17^b mmol/L
P [6, 12]: 2.26 ± 0.33^a mmol/L
PTH [6, 12]: 91.91 ± 13.10^b pg/mL
effect on PTH content ([6]; oral 1000 mg/kg BW LF in the VD-deficient group): reduce the PTH content
effect on serum calcium and phosphorus content ([6]; oral administration of LF): no effect
effect on the 25-OH D3 content in serum ([6]; oral administration of LF vs corresponding control groups): no significant effect
bone mineral density of the femur, increase compared with the VD-deficient control group ([7]; VD-deficient LF100-administered group, 5 months oral, p<0.05): 5.67%
effect on bone mineral density when VD is normal ([7]; oral administration, VD normal): further promote bone mineral density
calcium content in urine, reduction compared with the control group ([8]; VD-deficient groups): 67%
phosphorus content in urine, reduction compared with the control group ([8]; VD-deficient groups): 72%
calcium content in urine, reduction compared with the control group ([8]; VD-normal groups): 80%
phosphorus content in urine, reduction compared with the control group ([8]; VD-normal groups): 78%
VDR-positive cell rate in the kidney (VDR [9]; VD-deficient LF100-administered group): 13.8%
VDR positive cell rate in the femur (VDR [9]; VD-deficient LF100-administered group, FIG. 13): 75%
VDR-positive cell rate in the kidney (VDR [9]; VD-deficient LF1000-administered group): 17%
VDR positive cell rate in the colon (positive cells to total cells in each crypt) (VDR [9]; VD-deficient LF-administered group): more than 70%
VDR-positive cell rate in the kidney (VDR [9]; VD-normal LF100-administered group): 16.3%
VDR-positive cell rate in the kidney (VDR [9]; VD-normal LF1000-administered group): 16.5%
VDR positive cell rate in the colon (positive cells to total cells in each crypt) (VDR [9]; [10]): ~80%
